Measured values from the supplement of paper PMC7125110.
± gives the standard error. For some assays here: Fewer inactive variants are shown than the library holds.

B1: glmS ribozyme (parent)
chain: AUAAAAGCGCCAGAACUACAGAAAUGUAGUUGACGAGGAGGAGGUUUAUCGAAUUUUCGGCGGAUGCCUCCAAA

Experiments:
Details in all cases: with glucosamine-6-phosphate
[1] = variants of: B1; experiment: kcat; higher = faster cleavage; RNA array
Method in brief: (§1)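 On sequenced MiSeq chips, barcoded ribozyme variants were made in situ by E. coli RNA polymerase and followed at 37 °C through a hybridised Cy3 probe. Glucosamine-6-phosphate was flowed in at 40 μM to 10 mM in HEPES/KCl/Mg(OAc)2 buffer. Exponential fits to normalised per-tile medians gave kobs, and weighted Michaelis–Menten fits gave kcat and KM.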

[2] = variants of: B1; experiment: self-cleavage kobs at 10000 uM GlcN6P; higher = faster cleavage; RNA array
Method in brief: as §1

[3] = variants of: B1; experiment: KM; higher = weaker cofactor use; RNA array
Method in brief: as §1

[4] = variants of: B1; experiment: self-cleavage kobs at 2500 uM GlcN6P; higher = faster cleavage; RNA array
Method in brief: as §1

[5] = variants of: B1; experiment: self-cleavage kobs at 40 uM GlcN6P; higher = faster cleavage; RNA array
Method in brief: as §1

[6] = variants of: B1; experiment: self-cleavage kobs at 160 uM GlcN6P; higher = faster cleavage; RNA array
Method in brief: as §1

[7] = variants of: B1; experiment: self-cleavage kobs at 640 uM GlcN6P; higher = faster cleavage; RNA array
Method in brief: as §1

Variant	kcat [1] [s⁻¹]	self-cleavage kobs at 10000 uM GlcN6P [2] [s⁻¹]	KM [3] [µM]	self-cleavage kobs at 2500 uM GlcN6P [4] [s⁻¹]	self-cleavage kobs at 40 uM GlcN6P [5] [s⁻¹]	self-cleavage kobs at 160 uM GlcN6P [6] [s⁻¹]	self-cleavage kobs at 640 uM GlcN6P [7] [s⁻¹]
A14U G38A	< 1e-05	< 1e-05					
C16A C58A	0.000107 ± 7.2e-06	9.21e-05 ± 1.1e-05	1510 ± 430	7.24e-05 ± 1.4e-05			
A14U C71U	0.00742 ± 0.0032	0.00786 ± 0.00099		0.00252 ± 0.00058	0.000206 ± 3.1e-05	0.000492 ± 8.1e-05	0.00138 ± 0.00019
G13C U69C	7.75e-05 ± 1.1e-05	8.36e-05 ± 1.7e-05		5.9e-05 ± 1.8e-05			7.04e-05 ± 2.6e-05
G13U A52G	7e-05 ± 5.1e-06	6.34e-05 ± 7e-06	817 ± 370	6.21e-05 ± 1.3e-05	< 1e-05		
A15U G35A	< 1e-05	< 1e-05			< 1e-05		
A15U G29A	0.00194 ± 0.00084	0.00142 ± 0.0002		0.00039 ± 0.0001		7.32e-05 ± 1.6e-05	0.000218 ± 4.3e-05
C16A A53G	0.00159 ± 0.00057	0.0017 ± 0.00029		0.000777 ± 0.00017	7.66e-05 ± 1.7e-05	0.000134 ± 3.8e-05	0.000374 ± 9.2e-05
A15C U54A	0.00654 ± 0.0017	0.00638 ± 0.00097	1930 ± 730	0.00329 ± 0.00066	0.000164 ± 2.4e-05	0.000559 ± 0.00011	0.0012 ± 0.00025
A14U A42G	0.0156 ± 0.0054	0.0147 ± 0.0018	2710 ± 1300	0.00517 ± 0.001	0.000273 ± 3.1e-05	0.00064 ± 0.00015	0.00347 ± 0.00055
A15C C16A C68G	2.65e-05 ± 7.2e-06			2.94e-05 ± 1.3e-05			
A14G C61A	1.1e-05 ± 4.8e-06						
G13C U31G C70U	0.000159 ± 3.6e-05	0.000131 ± 2.7e-05		0.000148 ± 3.9e-05			4.2e-05 ± 1.9e-05
A15U G66U	0.000139 ± 1.2e-05	0.000127 ± 1.5e-05	717 ± 180	0.000153 ± 4.4e-05			6.31e-05 ± 9.8e-06
A14G G59U	0.000386 ± 9.6e-05	0.000196 ± 2.2e-05	9330 ± 3800	9.37e-05 ± 1.5e-05			1.71e-05 ± 8e-06
G13U A36C G38U A39C	1.03e-05 ± 4.7e-06						
A14U A53U	0.00789 ± 0.00051	0.00654 ± 0.00056	2540 ± 240	0.00355 ± 0.00044	0.000127 ± 1.2e-05	0.000453 ± 9.2e-05	0.00157 ± 0.00019

Variant	kcat [1] [s⁻¹]	self-cleavage kobs at 10000 uM GlcN6P [2] [s⁻¹]	KM [3] [µM]	self-cleavage kobs at 2500 uM GlcN6P [4] [s⁻¹]	self-cleavage kobs at 40 uM GlcN6P [5] [s⁻¹]	self-cleavage kobs at 160 uM GlcN6P [6] [s⁻¹]	self-cleavage kobs at 640 uM GlcN6P [7] [s⁻¹]
A14U G43U	< 1e-05				< 1e-05		
A14C G60A	< 1e-05				< 1e-05		< 1e-05
A15U C16G	0.00121 ± 0.00041	0.000952 ± 0.00022	2570 ± 1300	0.000786 ± 0.0002	2.88e-05 ± 1.4e-05	8.8e-05 ± 1.9e-05	0.000169 ± 5.1e-05
A14G A23C A64U	0.000287 ± 3.5e-05	0.00026 ± 5.2e-05	1610 ± 460	0.000151 ± 4.3e-05			8.79e-05 ± 2.3e-05
A15C A39C	0.00146 ± 0.00042	0.00112 ± 8.5e-05	3400 ± 1700	0.000622 ± 9.2e-05	2.08e-05 ± 6.5e-06	0.000119 ± 1.5e-05	0.000171 ± 2.6e-05
A14C U65G	0.00175 ± 0.00025	0.00117 ± 0.00024	4500 ± 1000	0.000717 ± 0.00019			0.000206 ± 5.5e-05
A14G U49G	0.00278 ± 0.00095	0.00302 ± 0.00044		0.00109 ± 0.0003	7.8e-05 ± 1.6e-05		0.000937 ± 0.00022
G13U G29U C70A	3.94e-05 ± 1.3e-05			4.33e-05 ± 1.9e-05			
A15C U30A A48U	6.89e-05 ± 1.4e-05	5.4e-05 ± 2e-05		4.08e-05 ± 1.4e-05	< 1e-05		
C16A U69C	0.00012 ± 3.2e-05	0.000168 ± 4e-05		7.87e-05 ± 2.2e-05			9.93e-05 ± 2.2e-05
C16A U69A	3.39e-05 ± 9e-06			4.42e-05 ± 1.3e-05			
A15G U56C	0.0034 ± 0.0013	0.00354 ± 0.0006		0.00116 ± 0.00021	5.65e-05 ± 1.3e-05	0.00017 ± 2.9e-05	0.000805 ± 0.00025
A15C C16A G37U C70U C71G	1.25e-05 ± 2.5e-06						
C16A U45G	0.000271 ± 2.9e-06	0.000222 ± 2.7e-05	2200 ± 54	0.000144 ± 3.4e-05			6.15e-05 ± 1.2e-05
C16A G66A	0.00167 ± 9.1e-05	0.00118 ± 0.00018	4130 ± 370	0.000633 ± 0.00013		6.8e-05 ± 3.1e-05	0.000223 ± 5e-05
C16A G66C	6.9e-05 ± 1.7e-05	2.41e-05 ± 1.1e-05			< 1e-05		
A14C U65G C70U	0.0014 ± 0.00044	0.00104 ± 0.00015		0.000467 ± 6.2e-05		4.59e-05 ± 1.6e-05	0.000315 ± 6.8e-05
